Measurements published in doi:10.1101/726224 (bioRxiv, 2019).

Target: Cyclin B1^165-433 (isolated) (UniProt P14635 165-433)
Test: SEC

Chain of Cyclin B1^165-433 (isolated) (P14635 165-433): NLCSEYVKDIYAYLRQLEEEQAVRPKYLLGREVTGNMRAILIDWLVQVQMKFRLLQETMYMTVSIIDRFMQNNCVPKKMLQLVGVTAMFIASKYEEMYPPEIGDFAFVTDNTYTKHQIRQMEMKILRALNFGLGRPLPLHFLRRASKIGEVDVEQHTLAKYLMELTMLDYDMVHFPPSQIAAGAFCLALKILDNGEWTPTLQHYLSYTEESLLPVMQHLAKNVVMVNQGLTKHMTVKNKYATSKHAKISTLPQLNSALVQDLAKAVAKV

LQMQYQQSMQLEERAEQIRSKS (domain or fragment) [MBP-MAD1^41-62]
binding result: binds
